{
  "source": "patent US20160060307A1",
  "about": "(KYUNGPOOK NATIONAL UNIVERSITY INDUSTRY ACADEMIC COOPERATION …, published 2016)",
  "key": {"[1]": {"molecular_target": "T1, IL-4 receptor protein immobilised on carboxymethyl dextran chip (SPR) (Homo sapiens (Human), UniProt P24394 26-232)", "T1 construct": "Soluble protein coupled to the chip by EDC/NHS", "T1 sequence": "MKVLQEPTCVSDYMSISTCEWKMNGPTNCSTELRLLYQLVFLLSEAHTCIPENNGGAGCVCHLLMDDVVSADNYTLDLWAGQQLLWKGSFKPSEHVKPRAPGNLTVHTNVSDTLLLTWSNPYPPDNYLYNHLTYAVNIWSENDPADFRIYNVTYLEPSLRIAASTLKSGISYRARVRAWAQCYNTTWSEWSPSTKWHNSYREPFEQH", "assay": "SPR, IL-4 receptor immobilised, equilibrium fit", "experimental": "(§1) Here, the right channel was used as a reference channel. In the two channels, left channel and right channel, 1M ethanolamine (pH 8.5) solution was allowed to flow over the unreacted surface for 7 min for blocking, so as to reduce non-specific adsorption thereof. All test procedures were conducted at a temperature of 25° C. and the flow rate was 25 ul/min.\nThe buffer (20 mM Tris-HCl pH 8.0, 150 mM NaCl, 180 mM Histidine, 62.5 ug/ml BSA, 0.005% Tween 20) was used through filtering and degassing. […] For regeneration, 2 M NaCl was allowed to flow over for 1 h to wash the proteins remaining without dissociation.\nIn the binding graph, the RU value expressing the amount of bound protein was measured by subtracting the blank (buffer) value and reference channel (right channel) value, using Scrubber software. The KD value was obtained from the binding RU (Req) values measured at the respective concentrations using KaleidaGraph software."}, "[2]": {"molecular_target": "T1, IL-4 receptor protein immobilised on …", "assay": "SPR, IL-4 receptor immobilised", "experimental": "as §1"}},
  "data": [
    {"binder": "FTL-GG-AP1L: ferritin having AP1L inserted in GG cassette (human ferritin light chain, fourth loop) (designed binder, One monomer is given; it assembles into a 24-mer ferritin cage., pET28a(+) expression with Ni-NTA purification (His tag); Cage-forming; also called 157cysAP1-PBNC; not shown: His tag from the pET28a(+) vector (Ni-NTA purification, anti-His probe)) MSSQIRQNYSTDVEAAVNSLVNLYLQASYTYLSLGFYFDRDDVALEGVSHFFRELAEEKREGYERLLKMQNQRGGRALFQDIKKPAEDEWGKTPDAMKAAMALEKKLNQALLDLHALGSARTDPHLCDFLETHFLDEEVKLIKKMGDHLTNLHRGSCRKRLDRNCGGPEAGLGEYLFERLTLKHD", "values": [
      {"measurement": "Kd", "setting": "[1]", "result": 25.9, "unit": "nM"}
    ]},
    {"binder": "FTL-GP-AP1L: ferritin having AP1L inserted in GP cassette (human ferritin light chain, fourth loop) (designed binder, One monomer is given; it assembles into a 24-mer ferritin cage., pET28a(+) expression with Ni-NTA purification (His tag); Cage-forming; not shown: His tag from the pET28a(+) vector (Ni-NTA purification, anti-His probe)) MSSQIRQNYSTDVEAAVNSLVNLYLQASYTYLSLGFYFDRDDVALEGVSHFFRELAEEKREGYERLLKMQNQRGGRALFQDIKKPAEDEWGKTPDAMKAAMALEKKLNQALLDLHALGSARTDPHLCDFLETHFLDEEVKLIKKMGDHLTNLHRLGSCRKRLDRNCGPEAGLGEYLFERLTLKHD", "values": [
      {"measurement": "Kd", "setting": "[1]", "result": 9.9, "unit": "nM"}
    ]},
    {"binder": "FTL-GG-AP1S: ferritin having AP1S inserted in GG cassette (human ferritin light chain, fourth loop) (designed binder, One monomer is given; it assembles into a 24-mer ferritin cage., It forms a ferritin-like cage (24-mer); also called FTL-AP1; not shown: His tag from the pET28a(+) vector (Ni-NTA purification, anti-His probe)) MSSQIRQNYSTDVEAAVNSLVNLYLQASYTYLSLGFYFDRDDVALEGVSHFFRELAEEKREGYERLLKMQNQRGGRALFQDIKKPAEDEWGKTPDAMKAAMALEKKLNQALLDLHALGSARTDPHLCDFLETHFLDEEVKLIKKMGDHLTNLHRGSRKRLDRNGGPEAGLGEYLFERLTLKHD", "values": [
      {"measurement": "Kd", "setting": "[2]", "result": 0.443, "unit": "nM"},
      {"measurement": "koff", "setting": "[2]", "result": 0.00125, "unit": "s⁻¹"},
      {"measurement": "kon", "setting": "[2]", "result": "1.22e+06", "unit": "M⁻¹ s⁻¹"},
      {"measurement": "Kd", "setting": "[1]", "result": 1.19, "unit": "nM"}
    ]},
    {"binder": "FTL-GP-AP1S: ferritin having AP1S inserted in GP cassette (human ferritin light chain, fourth loop) (designed binder, One monomer is given; it assembles into a 24-mer ferritin cage., pET28a(+) expression with Ni-NTA purification (His tag); Cage-forming; not shown: His tag from the pET28a(+) vector (Ni-NTA purification, anti-His probe)) MSSQIRQNYSTDVEAAVNSLVNLYLQASYTYLSLGFYFDRDDVALEGVSHFFRELAEEKREGYERLLKMQNQRGGRALFQDIKKPAEDEWGKTPDAMKAAMALEKKLNQALLDLHALGSARTDPHLCDFLETHFLDEEVKLIKKMGDHLTNLHRLGSRKRLDRNGPEAGLGEYLFERLTLKHD", "values": [
      {"measurement": "Kd", "setting": "[1]", "result": 4.29, "unit": "nM"}
    ]},
    {"binder": "FTL-AP1_AP1: fusion polypeptide in which AP1S was fused to N-terminal of FTL_GG-AP1S (designed binder, One monomer is given; it assembles into a 24-mer ferritin cage., Expressed from pET28a(+) via NdeI/XhoI and purified on Ni-NTA (His tag); also called ferritin having two inserted AP1 peptides; not shown: His tag from the pET28a(+) vector (Ni-NTA purification)) MRKRLDRNGGGSGMSSQIRQNYSTDVEAAVNSLVNLYLQASYTYLSLGFYFDRDDVALEGVSHFFRELAEEKREGYERLLKMQNQRGGRALFQDIKKPAEDEWGKTPDAMKAAMALEKKLNQALLDLHALGSARTDPHLCDFLETHFLDEEVKLIKKMGDHLTNLHRGSRKRLDRNGGPEAGLGEYLFERLTLKHD", "values": [
      {"measurement": "Kd", "setting": "[2]", "result": 0.0458, "unit": "nM"},
      {"measurement": "fold enhancement of binding affinity against FTL-AP1", "setting": "[2]", "result": 10, "unit": "times"},
      {"measurement": "koff", "setting": "[2]", "result": "3.8e-05", "unit": "s⁻¹"},
      {"measurement": "kon", "setting": "[2]", "result": 826000, "unit": "M⁻¹ s⁻¹"}
    ]}
  ]
}
